In US20210371508A1 one finds number under the TFRC band (band intensity, not named on the sheet) and number under the NMES1 band (band intensity, not named on the sheet) data, which are given here for 1 substance.

Experiment [1] addresses transferrin receptor 1 (TFRC) (human) (UniProt P02786). The experiment is described as follows: IP with IgG control, lysate of 231 cells with V5-NMES1 OE pre-incubated with NM-1; western blot for TFRC.
Experiment [2] shares this target. The experiment is described as follows: IP with IgG control, lysate of 231 cells with V5-NMES1 OE pre-incubated with isotype ctrl; western blot for TFRC.
In experiment [3] the target is V5-hNMES1 (human) (UniProt Q9C002). As to the kind of experiment: IP with IgG control, lysate of 231 cells with V5-NMES1 OE pre-incubated with NM-1; western blot for NMES1; hardly any band.
For experiment [4] the target is unchanged. The experiment is described as follows: IP with IgG control, lysate of 231 cells with V5-NMES1 OE pre-incubated with isotype ctrl; western blot for NMES1; a band is visible in this control lane.

Sequence of transferrin receptor 1 (TFRC) (human) (P02786 whole entry): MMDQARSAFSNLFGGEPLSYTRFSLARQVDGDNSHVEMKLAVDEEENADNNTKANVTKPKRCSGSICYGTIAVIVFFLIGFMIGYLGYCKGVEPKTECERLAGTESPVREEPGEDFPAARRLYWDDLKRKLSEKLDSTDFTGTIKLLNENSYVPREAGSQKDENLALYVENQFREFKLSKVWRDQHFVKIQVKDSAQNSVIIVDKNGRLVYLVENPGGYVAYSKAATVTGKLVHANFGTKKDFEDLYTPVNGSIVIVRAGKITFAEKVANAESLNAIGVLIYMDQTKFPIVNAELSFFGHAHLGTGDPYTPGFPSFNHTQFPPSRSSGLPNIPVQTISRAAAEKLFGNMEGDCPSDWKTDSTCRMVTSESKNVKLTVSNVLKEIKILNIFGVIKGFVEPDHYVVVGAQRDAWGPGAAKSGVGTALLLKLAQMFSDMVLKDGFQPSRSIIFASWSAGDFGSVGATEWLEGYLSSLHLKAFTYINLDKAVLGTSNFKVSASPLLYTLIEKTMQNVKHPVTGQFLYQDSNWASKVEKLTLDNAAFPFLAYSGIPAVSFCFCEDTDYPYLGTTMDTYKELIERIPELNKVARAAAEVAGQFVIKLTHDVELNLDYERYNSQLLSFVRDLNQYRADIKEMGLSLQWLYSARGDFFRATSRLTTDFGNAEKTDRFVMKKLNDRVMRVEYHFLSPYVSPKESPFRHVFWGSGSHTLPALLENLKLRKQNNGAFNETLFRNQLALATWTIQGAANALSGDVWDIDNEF
Sequence of V5-hNMES1 (human) (Q9C002 whole entry): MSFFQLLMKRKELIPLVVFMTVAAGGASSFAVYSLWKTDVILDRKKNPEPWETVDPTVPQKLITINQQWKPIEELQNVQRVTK

With isotype IgG control (antibody), the number under the TFRC band (band intensity, not named on the sheet) was 27.4 in experiment [1] and 24 in experiment [2]. Further, the number under the NMES1 band (band intensity, not named on the sheet) in experiment [3] came to 15.8; in experiment [4], 38.5.
